# Test results as given in patent publication US20190062399A1.
# Target: B7-1Ig (CD80-Ig fusion protein) (UniProt P33681)
# Experiment: SPR kinetics (Biacore), 75-200 nM analyte over B7-1Ig chip (694 RU)
# Sequence of Protein A eluate of the HIC cleaning peak (mixture of all CTLA4-Ig species) (chain): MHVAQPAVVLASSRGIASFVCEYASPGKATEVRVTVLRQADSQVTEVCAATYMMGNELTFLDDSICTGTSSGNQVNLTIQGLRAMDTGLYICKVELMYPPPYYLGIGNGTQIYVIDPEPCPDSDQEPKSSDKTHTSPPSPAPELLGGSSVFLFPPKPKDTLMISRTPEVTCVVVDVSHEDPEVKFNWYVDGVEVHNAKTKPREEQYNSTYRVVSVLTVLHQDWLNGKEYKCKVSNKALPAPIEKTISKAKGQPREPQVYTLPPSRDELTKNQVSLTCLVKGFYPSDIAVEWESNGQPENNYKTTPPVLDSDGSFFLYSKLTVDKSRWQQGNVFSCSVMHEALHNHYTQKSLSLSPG
# Sequence of UniProt P33681 (P33681 35-242 limits assumed): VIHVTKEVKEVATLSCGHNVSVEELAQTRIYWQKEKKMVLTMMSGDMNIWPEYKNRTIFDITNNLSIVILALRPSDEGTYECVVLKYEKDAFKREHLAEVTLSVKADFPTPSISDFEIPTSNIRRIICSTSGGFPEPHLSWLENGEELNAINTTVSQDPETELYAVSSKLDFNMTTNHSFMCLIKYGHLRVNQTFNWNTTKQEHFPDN
substance,measurement,value
Protein A eluate of the HIC cleaning peak (mixture of all CTLA4-Ig species),Ka,3.87e+07 M⁻¹
same,Kd,25.8 nM
same,koff,0.00973 s⁻¹
same,kon,377000 M⁻¹ s⁻¹
